According to paper PMC10689251:

Biological target: RuBisCO large subunit CbbL (Cyanobium sp. PCC 7001)
Experiment: cryo-EM structure; single-particle analysis of RuBisCO particles spilled from broken native α-carboxysomes of Cyanobium sp. PCC 7001 (sample ~1 mg/mL in TEMB buffer, graphene oxide coated grids); refined with D4 symmetry (2.87 Å) and without symmetry (3.79 Å); density for RuBP and magnesium in the active site

## RuBisCO large subunit CbbL (natural protein)
  stoichiometry N: 8
